Paper PMC9786865, “Molecular Cloning and Characterization of a New Family VI Esterase from an Activated Sludge Metagenome” (Microorganisms, 2022)

Substrate: CC(=O)Oc1ccc([N+](=O)[O-])cc1
Assay: purified protein
Format: biochemical, uncultured sludge bacterium
Conditions: 50 mM Tris-HCl pH 8.0, 40 °C, 5 min, 0.08-1.0 mM substrate

B1: Est6 (uncultured sludge bacterium) (protein)
chain: MTELRINDDLVRWTVDRRPATADEALRALETRPLVLLMHGFGSFEGDLISLAAELPDGIVCASPRAPLTLPPPTVNGYAWWEIVFRADGTVVRSDPPAFEDSDAHTATLAILAWLDALDARVAGGLRTVVPLGFSQGGCMVTSLLRMQPTRFPCGVNCSGFVAPGSYAGDPELAAIRPPLFWGRDPADPIIEAERIDATAVWSAAHTAIEAHIYHGIGHGIGREEIADISAFIERHLAEAEH
notes: pPAL7 N-terminal Profinity eXact tag cleaved on column; E. coli BL21 Star (DE3); monomer; primers encode MTELRI... start and ...AEAEH end
- Km: 1070 µM
- kcat: 10.46 s⁻¹
